Measurements taken from patent US20260258127A1 (YING MAI DE MEDICAL TECHNOLOGY GUANGDONG, published 2026).

B1: CD3 antibody VH-Y61C conjugated through the cleavable linker peptide with R1 = PEG5K (Table 3) (antibody, V domains shown)
VH: EVQLVESGGGLVQPGGSLRLSCAASGFTFSTYAMNWVRQAPGKGLEWVGRIRSKYNNYATCYADSVKDRFTISRDDSKNSLYLQMNSLKTEDTAVYYCARHGNFGNSYVSWFAYWGQGTLVTVSS
VL: QTVVTQEPSLTVSPGGTVTLTCRSSTGAVTTSNYANWVQQKPGQAPRGLIGGTNKRAPGVPARFSGSLLGDKAALTLLGAQPEDEAEYFCALWYSNLWVFGGGTKLTVL
modifications: Cys 61 conjugated with cleavable linker peptide P carrying blocker PEG5K
notes: also called VH-61 Y61C PEG5K
B2: CD3 antibody VH-Y61C conjugated through the cleavable linker peptide with R1 = PEG10K (Table 3) (antibody, V domains shown)
VH: EVQLVESGGGLVQPGGSLRLSCAASGFTFSTYAMNWVRQAPGKGLEWVGRIRSKYNNYATCYADSVKDRFTISRDDSKNSLYLQMNSLKTEDTAVYYCARHGNFGNSYVSWFAYWGQGTLVTVSS
VL: QTVVTQEPSLTVSPGGTVTLTCRSSTGAVTTSNYANWVQQKPGQAPRGLIGGTNKRAPGVPARFSGSLLGDKAALTLLGAQPEDEAEYFCALWYSNLWVFGGGTKLTVL
modifications: Cys 61 conjugated with cleavable linker peptide P carrying blocker PEG10K
notes: also called VH-61 Y61C PEG10K
B3: CD3 antibody VH-Y61C conjugated through the cleavable linker peptide with R1 = PEG20K (Table 3) (antibody, V domains shown)
VH: EVQLVESGGGLVQPGGSLRLSCAASGFTFSTYAMNWVRQAPGKGLEWVGRIRSKYNNYATCYADSVKDRFTISRDDSKNSLYLQMNSLKTEDTAVYYCARHGNFGNSYVSWFAYWGQGTLVTVSS
VL: QTVVTQEPSLTVSPGGTVTLTCRSSTGAVTTSNYANWVQQKPGQAPRGLIGGTNKRAPGVPARFSGSLLGDKAALTLLGAQPEDEAEYFCALWYSNLWVFGGGTKLTVL
modifications: Cys 61 conjugated with cleavable linker peptide P carrying blocker PEG20K
notes: may be the same molecule as m19 (same value 400) or as CD3-Her2+20k; also called VH-61 Y61C PEG20K
B4: CD3 antibody VH-Y61C conjugated through the cleavable linker peptide with R1 = PEG40K (Table 3) (antibody, V domains shown)
VH: EVQLVESGGGLVQPGGSLRLSCAASGFTFSTYAMNWVRQAPGKGLEWVGRIRSKYNNYATCYADSVKDRFTISRDDSKNSLYLQMNSLKTEDTAVYYCARHGNFGNSYVSWFAYWGQGTLVTVSS
VL: QTVVTQEPSLTVSPGGTVTLTCRSSTGAVTTSNYANWVQQKPGQAPRGLIGGTNKRAPGVPARFSGSLLGDKAALTLLGAQPEDEAEYFCALWYSNLWVFGGGTKLTVL
modifications: Cys 61 conjugated with cleavable linker peptide P carrying blocker PEG40K
notes: also called VH-61 Y61C PEG40K
B5: CD3 antibody VH-Y61C PEG5K conjugate after activation (Table 3) (antibody, V domains shown)
VH: EVQLVESGGGLVQPGGSLRLSCAASGFTFSTYAMNWVRQAPGKGLEWVGRIRSKYNNYATCYADSVKDRFTISRDDSKNSLYLQMNSLKTEDTAVYYCARHGNFGNSYVSWFAYWGQGTLVTVSS
VL: QTVVTQEPSLTVSPGGTVTLTCRSSTGAVTTSNYANWVQQKPGQAPRGLIGGTNKRAPGVPARFSGSLLGDKAALTLLGAQPEDEAEYFCALWYSNLWVFGGGTKLTVL
modifications: Cys 61: PEG5K blocker released by activation (cleavage of the linker peptide); what remains on Cys 61 is not stated
B6: CD3 antibody VH-Y61C PEG10K conjugate after activation (Table 3) (antibody, V domains shown)
VH: EVQLVESGGGLVQPGGSLRLSCAASGFTFSTYAMNWVRQAPGKGLEWVGRIRSKYNNYATCYADSVKDRFTISRDDSKNSLYLQMNSLKTEDTAVYYCARHGNFGNSYVSWFAYWGQGTLVTVSS
VL: QTVVTQEPSLTVSPGGTVTLTCRSSTGAVTTSNYANWVQQKPGQAPRGLIGGTNKRAPGVPARFSGSLLGDKAALTLLGAQPEDEAEYFCALWYSNLWVFGGGTKLTVL
modifications: Cys 61: PEG10K blocker released by activation (cleavage of the linker peptide); what remains on Cys 61 is not stated
B7: CD3 antibody VH-Y61C PEG20K conjugate after activation (Table 3) (antibody, V domains shown)
VH: EVQLVESGGGLVQPGGSLRLSCAASGFTFSTYAMNWVRQAPGKGLEWVGRIRSKYNNYATCYADSVKDRFTISRDDSKNSLYLQMNSLKTEDTAVYYCARHGNFGNSYVSWFAYWGQGTLVTVSS
VL: QTVVTQEPSLTVSPGGTVTLTCRSSTGAVTTSNYANWVQQKPGQAPRGLIGGTNKRAPGVPARFSGSLLGDKAALTLLGAQPEDEAEYFCALWYSNLWVFGGGTKLTVL
modifications: Cys 61: PEG20K blocker released by activation (cleavage of the linker peptide); what remains on Cys 61 is not stated
B8: CD3 antibody VH-Y61C PEG40K conjugate after activation (Table 3) (antibody, V domains shown)
VH: EVQLVESGGGLVQPGGSLRLSCAASGFTFSTYAMNWVRQAPGKGLEWVGRIRSKYNNYATCYADSVKDRFTISRDDSKNSLYLQMNSLKTEDTAVYYCARHGNFGNSYVSWFAYWGQGTLVTVSS
VL: QTVVTQEPSLTVSPGGTVTLTCRSSTGAVTTSNYANWVQQKPGQAPRGLIGGTNKRAPGVPARFSGSLLGDKAALTLLGAQPEDEAEYFCALWYSNLWVFGGGTKLTVL
modifications: Cys 61: PEG40K blocker released by activation (cleavage of the linker peptide); what remains on Cys 61 is not stated
B9: anti-CD3 antibody mutant VH-W111C conjugated with Molecule I (+20K) (antibody, V domains shown)
VH: EVQLVESGGGLVQPGGSLRLSCAASGFTFSTYAMNWVRQAPGKGLEWVGRIRSKYNNYATYYADSVKDRFTISRDDSKNSLYLQMNSLKTEDTAVYYCARHGNFGNSYVSCFAYWGQGTLVTVSS
VL: QTVVTQEPSLTVSPGGTVTLTCRSSTGAVTTSNYANWVQQKPGQAPRGLIGGTNKRAPGVPARFSGSLLGDKAALTLLGAQPEDEAEYFCALWYSNLWVFGGGTKLTVL
modifications: Cys 111 conjugated with Molecule I (+20K)
notes: also called VH-111 W111 (+20K)
B10: anti-CD3 antibody mutant VL-K55C conjugated with Molecule I (+20K) (antibody, V domains shown)
VH: EVQLVESGGGLVQPGGSLRLSCAASGFTFSTYAMNWVRQAPGKGLEWVGRIRSKYNNYATYYADSVKDRFTISRDDSKNSLYLQMNSLKTEDTAVYYCARHGNFGNSYVSWFAYWGQGTLVTVSS
VL: QTVVTQEPSLTVSPGGTVTLTCRSSTGAVTTSNYANWVQQKPGQAPRGLIGGTNCRAPGVPARFSGSLLGDKAALTLLGAQPEDEAEYFCALWYSNLWVFGGGTKLTVL
modifications: Cys 55 conjugated with Molecule I (+20K)
notes: also called VL-55 K55 (+20K)
B11: anti-CD3 antibody mutant VL-N54C conjugated with Molecule I (+20K) (antibody, V domains shown)
VH: EVQLVESGGGLVQPGGSLRLSCAASGFTFSTYAMNWVRQAPGKGLEWVGRIRSKYNNYATYYADSVKDRFTISRDDSKNSLYLQMNSLKTEDTAVYYCARHGNFGNSYVSWFAYWGQGTLVTVSS
VL: QTVVTQEPSLTVSPGGTVTLTCRSSTGAVTTSNYANWVQQKPGQAPRGLIGGTCKRAPGVPARFSGSLLGDKAALTLLGAQPEDEAEYFCALWYSNLWVFGGGTKLTVL
modifications: Cys 54 conjugated with Molecule I (+20K)
notes: also called VL-54 N54 (+20K)
B12: anti-CD3 antibody mutant VL-N96C conjugated with Molecule I (+20K) (antibody, V domains shown)
VH: EVQLVESGGGLVQPGGSLRLSCAASGFTFSTYAMNWVRQAPGKGLEWVGRIRSKYNNYATYYADSVKDRFTISRDDSKNSLYLQMNSLKTEDTAVYYCARHGNFGNSYVSWFAYWGQGTLVTVSS
VL: QTVVTQEPSLTVSPGGTVTLTCRSSTGAVTTSNYANWVQQKPGQAPRGLIGGTNKRAPGVPARFSGSLLGDKAALTLLGAQPEDEAEYFCALWYSCLWVFGGGTKLTVL
modifications: Cys 96 conjugated with Molecule I (+20K)
notes: also called VL-96 N96 (+20K)
B13: anti-CD3 antibody mutant VL-R56C conjugated with Molecule I (+20K) (antibody, V domains shown)
VH: EVQLVESGGGLVQPGGSLRLSCAASGFTFSTYAMNWVRQAPGKGLEWVGRIRSKYNNYATYYADSVKDRFTISRDDSKNSLYLQMNSLKTEDTAVYYCARHGNFGNSYVSWFAYWGQGTLVTVSS
VL: QTVVTQEPSLTVSPGGTVTLTCRSSTGAVTTSNYANWVQQKPGQAPRGLIGGTNKCAPGVPARFSGSLLGDKAALTLLGAQPEDEAEYFCALWYSNLWVFGGGTKLTVL
modifications: Cys 56 conjugated with Molecule I (+20K)
notes: also called VL-56 R56 (+20K)
B14: anti-CD3 antibody mutant VL-W93C conjugated with Molecule I (+20K) (antibody, V domains shown)
VH: EVQLVESGGGLVQPGGSLRLSCAASGFTFSTYAMNWVRQAPGKGLEWVGRIRSKYNNYATYYADSVKDRFTISRDDSKNSLYLQMNSLKTEDTAVYYCARHGNFGNSYVSWFAYWGQGTLVTVSS
VL: QTVVTQEPSLTVSPGGTVTLTCRSSTGAVTTSNYANWVQQKPGQAPRGLIGGTNKRAPGVPARFSGSLLGDKAALTLLGAQPEDEAEYFCALCYSNLWVFGGGTKLTVL
modifications: Cys 93 conjugated with Molecule I (+20K)
notes: also called VL-93 W93 (+20K)
B15: anti-CD3 antibody mutant VL-Y34C conjugated with Molecule I (+20K) (antibody, V domains shown)
VH: EVQLVESGGGLVQPGGSLRLSCAASGFTFSTYAMNWVRQAPGKGLEWVGRIRSKYNNYATYYADSVKDRFTISRDDSKNSLYLQMNSLKTEDTAVYYCARHGNFGNSYVSWFAYWGQGTLVTVSS
VL: QTVVTQEPSLTVSPGGTVTLTCRSSTGAVTTSNCANWVQQKPGQAPRGLIGGTNKRAPGVPARFSGSLLGDKAALTLLGAQPEDEAEYFCALWYSNLWVFGGGTKLTVL
modifications: Cys 34 conjugated with Molecule I (+20K)
notes: also called VL-34 Y34 (+20K)
B16: anti-CD3 antibody mutant VL-Y94C conjugated with Molecule I (+20K) (antibody, V domains shown)
VH: EVQLVESGGGLVQPGGSLRLSCAASGFTFSTYAMNWVRQAPGKGLEWVGRIRSKYNNYATYYADSVKDRFTISRDDSKNSLYLQMNSLKTEDTAVYYCARHGNFGNSYVSWFAYWGQGTLVTVSS
VL: QTVVTQEPSLTVSPGGTVTLTCRSSTGAVTTSNYANWVQQKPGQAPRGLIGGTNKRAPGVPARFSGSLLGDKAALTLLGAQPEDEAEYFCALWCSNLWVFGGGTKLTVL
modifications: Cys 94 conjugated with Molecule I (+20K)
notes: also called VL-94 Y94 (+20K)
B17: anti-CD3 antibody mutant VH-Y61C conjugated with Molecule I (+20K) (antibody, V domains shown)
VH: EVQLVESGGGLVQPGGSLRLSCAASGFTFSTYAMNWVRQAPGKGLEWVGRIRSKYNNYATCYADSVKDRFTISRDDSKNSLYLQMNSLKTEDTAVYYCARHGNFGNSYVSWFAYWGQGTLVTVSS
VL: QTVVTQEPSLTVSPGGTVTLTCRSSTGAVTTSNYANWVQQKPGQAPRGLIGGTNKRAPGVPARFSGSLLGDKAALTLLGAQPEDEAEYFCALWYSNLWVFGGGTKLTVL
modifications: Cys 61 conjugated with Molecule I (+20K)
notes: also called VH-61 Y61 (+20K)

Each binder was assayed against T1, CD3 (antigen of the anti-CD3 antibody, coated in the ELISA of Examples 1-3) (Homo sapiens (Human), UniProt P07766 23-126) (assay: binding activity after conjugation with different R1; method not described (presumably ELISA)).
T1 construct: also called antibody antigen
T1 sequence (P07766 23-126 limits assumed, form in doubt): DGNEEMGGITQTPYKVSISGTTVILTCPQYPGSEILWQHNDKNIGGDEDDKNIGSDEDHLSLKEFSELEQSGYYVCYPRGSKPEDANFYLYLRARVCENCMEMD
B1 was tested, and the “Blocking fold after conjugation” value was 10 fold. In the case of B2, the “Blocking fold after conjugation” value is reported as 20 fold. For B3, the “Blocking fold after conjugation” value was 400 fold. With B4 the “Blocking fold after conjugation” value was 500 fold.

Each binder was assayed against T1, CD3 (antigen of the anti-CD3 antibody, …) (assay: binding activity after activation of the conjugate; method not described).
For B5, the “Recovery of binding force after activation (%)” value (shortened to “Recovery of binding force … (%)”) was 100%. In the case of B6, the “Recovery of binding force … (%)” value is reported as 100%. With B7 the “Recovery of binding force … (%)” value was 100%. For B8, the “Recovery of binding force … (%)” value was 100%.

Each binder was assayed against T1, CD3 (antigen of the anti-CD3 antibody, …) (assay: binding activity of the conjugated mutant compared with the wild-type antibody (ELISA as in Example 1)).
Protocol: In the present invention, the activity of each mutant with a point mutation compared to that of its initial antibody is detected by ELISA. Specifically, the 96-well plates were coated with antibody antigen overnight, then blocked with 1% BSA blocking agent (Thermo Fisher) at 37° C. for 2 hours, and washed with PBST for 3 times. The corresponding antibody or the corresponding mutant was added for binding at 37° C. for 1 hour, and then washed with PBST for 3 times. HRP enzyme-linked anti-human IgG was added for binding at 37° C. for 1 hour, and washed with PBST for 3 times. TMB substrate (Solarbio., Inc.) was used to detect absorbance at 450 nm. The effect on mutant binding strength was calculated through EC50 mutation/EC50 wild-type.
B9 was tested, and the “Blocking fold after conjugation (+20K)” value was 6 fold. In the case of B10, the “Blocking fold after conjugation (+20K)” value is reported as 5 fold. In the case of B11, the “Blocking fold after conjugation (+20K)” value is reported as 12 fold. In the case of B12, the “Blocking fold after conjugation (+20K)” value is reported as 2 fold. B13 was tested, and the “Blocking fold after conjugation (+20K)” value was 6 fold. B14 was tested, and the “Blocking fold after conjugation (+20K)” value was 5 fold. B15 was tested, and the “Blocking fold after conjugation (+20K)” value was 8 fold. In the case of B16, the “Blocking fold after conjugation (+20K)” value is reported as 30 fold. For B17, the “Blocking fold after conjugation (+20K)” value was 400 fold.
